The values below come from publication PMC3542428, “Functional Insights from the Crystal Structure of the N-Terminal Domain of the Prototypical Toll Receptor” (Structure(London, England:1993), 2013).

For experiment [1], the target named is TollN6-VLR (hybrid of Toll residues 28-228 and variable lymphocyte receptor B.61 residues 133-201) (Drosophila melanogaster | hagfish) (UniProt P08953). In words: dynamic light scattering; 100 mM NaCl, 50 mM Tris-HCl pH 7.0, about 200 μg/ml; Z-average diameter 12.7 nm, polydispersion index about 0.1.
For experiment [2], the target named is Toll (Drosophila melanogaster) (UniProt P08953). Conditions: cited from earlier work.
For experiment [3], the target named is single and double mutations of Cys 34, Cys 43 and Cys 45 in the Toll-TLR4 chimera.
Experiment [4] concerns the target T1, full-length Toll ECD (extracellular domain of Drosophila melanogaster Toll) (Drosophila melanogaster, UniProt P08953 28-807).
T1 construct: Toll, Drosophila melanogaster, UniProt P08953, full-length extracellular domain; Also used as the target of the functional row on endogenous Toll of S2 cells (no molecule of its own was made for the whole receptor); also called full-length ECD; full-length ectodomain
T1 sequence (looked up): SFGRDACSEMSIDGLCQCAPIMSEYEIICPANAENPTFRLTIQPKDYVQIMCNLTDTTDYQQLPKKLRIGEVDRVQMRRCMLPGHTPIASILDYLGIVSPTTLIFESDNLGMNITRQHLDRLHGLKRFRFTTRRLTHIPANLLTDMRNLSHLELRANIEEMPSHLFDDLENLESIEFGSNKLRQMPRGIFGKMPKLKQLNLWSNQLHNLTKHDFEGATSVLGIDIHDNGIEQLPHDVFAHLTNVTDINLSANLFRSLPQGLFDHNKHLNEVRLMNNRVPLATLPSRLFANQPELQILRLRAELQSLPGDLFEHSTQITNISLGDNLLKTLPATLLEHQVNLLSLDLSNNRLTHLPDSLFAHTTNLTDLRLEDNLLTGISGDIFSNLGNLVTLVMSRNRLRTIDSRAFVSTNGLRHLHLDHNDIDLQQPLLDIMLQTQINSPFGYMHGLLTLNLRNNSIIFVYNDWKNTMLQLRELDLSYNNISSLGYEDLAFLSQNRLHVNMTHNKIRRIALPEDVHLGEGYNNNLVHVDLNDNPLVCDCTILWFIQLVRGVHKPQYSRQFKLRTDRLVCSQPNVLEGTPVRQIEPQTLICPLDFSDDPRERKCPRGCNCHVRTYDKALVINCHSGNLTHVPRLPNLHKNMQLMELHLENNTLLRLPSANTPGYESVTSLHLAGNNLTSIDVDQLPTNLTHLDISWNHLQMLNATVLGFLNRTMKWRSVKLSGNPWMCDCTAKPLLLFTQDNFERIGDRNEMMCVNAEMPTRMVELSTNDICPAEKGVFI
In words: SEC; data not shown; same preparation of C-106 with full-length Toll ECD, complexes elute as 280 kDa species. The settings on record: both partners purified.

Experiment [5] deals with T2, TollN13-VLR (Toll N-terminal region up to LRR13 fused to VLR B.61 residues 133-201) (Drosophila melanogaster | hagfish, UniProt P08953 28-397; Q4G1L2 133-201).
T2 construct: Toll, Drosophila melanogaster, UniProt P08953, residues 28-397 (first 13 LRRs); cloned as residues 1-397 with its own signal peptide; the results say 'up to Leu 398 in LRR13'; variable lymphocyte receptor (VLR) B.61 of hagfish, residues Asn 133-Thr 201 (LRRCT cap); C-terminal limit of the Toll part is printed as 397 (methods, discussion) and as Leu 398 (results); also called larger Toll …
T2 chain (looked up): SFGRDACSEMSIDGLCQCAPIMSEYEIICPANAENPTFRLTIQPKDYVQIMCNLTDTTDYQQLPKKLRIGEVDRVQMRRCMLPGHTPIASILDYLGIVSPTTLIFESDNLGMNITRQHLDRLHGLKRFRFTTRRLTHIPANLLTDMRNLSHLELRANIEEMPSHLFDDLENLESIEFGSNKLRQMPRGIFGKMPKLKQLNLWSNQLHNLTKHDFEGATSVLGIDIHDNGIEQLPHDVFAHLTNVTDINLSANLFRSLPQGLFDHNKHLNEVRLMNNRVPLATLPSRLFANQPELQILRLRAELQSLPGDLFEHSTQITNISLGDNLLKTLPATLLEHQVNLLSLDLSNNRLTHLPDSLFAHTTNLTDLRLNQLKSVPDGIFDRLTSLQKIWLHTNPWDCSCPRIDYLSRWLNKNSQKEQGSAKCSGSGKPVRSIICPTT
In words: SEC; gel filtration of the Toll-VLR constructs alone and mixed with Spz C-106 (TollN6-VLR and C-106 in equimolar concentrations). Conditions: both partners purified. (In general: SEC sorts molecules by how far they enter the pores of the column.)

Turning to “TollN6-VLR (hybrid of Toll residues 28-228 and variable lymphocyte receptor B.61 residues 133-201) (from UniProt P08953 28-228; Q4G1L2 133-201) (domain or fragment)”, the stoichiometry N in experiment [1] was 4.
In the case of Toll (from UniProt P08953), the Kd in experiment [2] was 2000 nM.

B1: Spätzle C-106 (C-terminal active fragment of 106 amino acids of processed Spätzle) (ligand, Drosophila melanogaster, UniProt P48607 221-326, looked up)
chain: VGGSDERFLCRSIRKLVYPKKGLRADDTWQLIVNNDEYKQAIQIEECEGADQPCDFAANFPQSYNPICKQHYTQQTLASIKSDGELDVVQNSFKIPSCCKCALKTG
notes: Spätzle (Spz), Drosophila melanogaster; also called cleaved Spz; source: baculovirus expression system, His-tagged Spätzle, purified
For B1, the NF-κB luciferase reporter in HEK293ET cells transfected with the Toll-TLR4 chimera, 24 hr after Spz stimulation at 10 nM; decrease of the signal against the wild-type chimera in experiment [3] stood at 10 % decrease. Moreover, the “stoichiometry N” value is 1 ratio (2:2 as printed) in experiment [4] and 1 ratio (1:1 as printed) in experiment [5].

The stoichiometry N is a count of units in the complex or per binding partner. Usually Kd stands for a measure of binding affinity in units of concentration.
